Test results reported in paper PMC3817407.
Values joined by “and” are separate entries in the source; they are usually repeats but may differ in a detail not shown here. Equal values may be shown once.

B1: AS16_973 (protein)
chain: MKTDDLIALLAAGEGPVPRHAVGRRMAVAALGGLTAALLLTITLYGVRSDITEVAQTPLFWGKVAFPTSLALIGLWLTSRLARPGGKGAAGWKMLGLPLLLVWCGAAVSIAGAPVDARADLLFGRTWRTCALNIALLSVPAFVTVFWALKGLAPTRLRLAGAAGGLLAGSSATVAYCLHCPEMGVPFWGVWYVLGMLVPTVLGAWWGPRMLRW
B2: AS22_4450 (protein)
chain: MELDDMKHAWQTLEQRLDQQAAQTGQLLGVVHEETVRSSLRPLWVAQTAQLLCALALAIVSARSWIPHTDQPVAVIGGVLLQAWCMALAISAMVQLQLLTQFNVAGPLLRTQHALARLRRWRTRVAPWLGVAFWVLWIAVADALWRALTGQTLPTDWLVLNLLVGVAGGIGTWLGFRRLQRAQHPWLERIDRAHAGTGVIRAERMLEEIARFQRD
B3: AS20_992 (protein)
chain: MTPERFVHLADAYGADLQRWPSAERAAAQALLDCGDAQAVAALRQAHWLDSQLDRYQVPAPSPALAQRIIAAAQQPGAPFWSRYAGWLASLGWVGVGLTGVAAGMLAVALSLPLSTSAEALPSVFDQSDAEFVLSINAEEAEQ
B4: AS02_915 (protein)
chain: MEKTGQEWVSASVDGETDRQTLAELAADTDSHAKWQRYHLMGDAMRDELPQAMPLDLSARIAAALEDEPTILAPKVEREATQAPSRAVVVPFMRQLGQYGIAAAVALMAVVGVQNYQSTQDDAPLPVLNTRPLVGTATPVSLQTGPVANQNQGNANDQLLEQRRRINAYLQDHMLQQRLNTGAVVDDNSEVTPIPVNR
B5: AS16_3622 (protein)
chain: MMKTDELISLLATAEGPVDRHALARRLGLALLAGLLGALLLTVALYGVRSDLAEVARTPLFWAKVALPTSLALLGLWLTQRLARPGVRGGALWGLLGVPLLLVWLGAAISLFGAPPEARADLIFGRTWRTCALNITLLSTPVFIAVFWALRGLAPTRLRQAGAAGGLLAGSTATLVYCLHCPEMGVPFWGLWYLLGMLVPTLLGAVLGPRLLRW
B6: AS22_1147 (protein)
chain: MELDDIAVAWRSLEQRLDQHAALAGQVLGDLRSHAARAHLRPLWLSQSAQLLCAIALSGLVAHSWLAFPEQAAAIVGGVLLQIWCVALAASAARQLWLLSQLDFARPLLQTQRALAQLRRWRTRVAPWLGVAFWVLWVAVADAAWRALTGRSLPYAWLLCNLLVGVLGGIGTWLGYRRLQRSGHPWLERLDTVHAGRSVARTETLLEQIARFQRE
B7: AS15_524 (protein)
chain: MNFGVEDMIEHVPMEDKRKGAAALDEARLRQQAIGVKLRQMFDEVVNEPVPDEFLAILRKAERPAGGE

What was measured:
ECF15_524 = molecular target: T1, ECF15_524
T1 chain: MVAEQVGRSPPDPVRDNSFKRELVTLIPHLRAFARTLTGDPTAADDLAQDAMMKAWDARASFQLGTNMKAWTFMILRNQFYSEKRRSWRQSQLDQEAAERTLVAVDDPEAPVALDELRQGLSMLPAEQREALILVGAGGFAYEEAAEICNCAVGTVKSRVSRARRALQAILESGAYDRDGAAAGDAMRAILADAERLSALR

ECF22_4450 = molecular target: T2, ECF22_4450
T2 chain: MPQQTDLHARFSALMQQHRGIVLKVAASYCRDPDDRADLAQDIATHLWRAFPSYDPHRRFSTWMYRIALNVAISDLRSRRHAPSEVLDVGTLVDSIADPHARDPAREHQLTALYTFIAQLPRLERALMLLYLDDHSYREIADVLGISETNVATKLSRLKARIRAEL

ECF25_1645 = molecular target: T3, ECF25_1645
T3 chain: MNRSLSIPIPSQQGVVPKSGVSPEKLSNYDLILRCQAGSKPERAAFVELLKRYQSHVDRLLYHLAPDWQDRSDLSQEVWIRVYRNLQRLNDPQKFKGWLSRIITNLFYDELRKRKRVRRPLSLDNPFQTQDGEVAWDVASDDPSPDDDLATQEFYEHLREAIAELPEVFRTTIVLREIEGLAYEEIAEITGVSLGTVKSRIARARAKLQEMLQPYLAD

ECF31_34 = molecular target: T4, ECF31_34
T4 chain: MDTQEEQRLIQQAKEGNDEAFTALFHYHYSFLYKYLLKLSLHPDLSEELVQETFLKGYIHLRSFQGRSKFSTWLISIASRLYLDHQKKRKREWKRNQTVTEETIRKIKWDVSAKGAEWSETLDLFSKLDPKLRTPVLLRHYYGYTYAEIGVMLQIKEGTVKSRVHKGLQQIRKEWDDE

ECF28_1088 = molecular target: T5, ECF28_1088
T5 chain: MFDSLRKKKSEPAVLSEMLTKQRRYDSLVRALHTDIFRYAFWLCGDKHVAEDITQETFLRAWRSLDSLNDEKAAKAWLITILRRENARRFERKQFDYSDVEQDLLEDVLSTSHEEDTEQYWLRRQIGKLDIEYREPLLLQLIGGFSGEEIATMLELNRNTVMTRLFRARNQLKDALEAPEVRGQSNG

ECF17_1691 = molecular target: T6, ECF17_1691
T6 chain: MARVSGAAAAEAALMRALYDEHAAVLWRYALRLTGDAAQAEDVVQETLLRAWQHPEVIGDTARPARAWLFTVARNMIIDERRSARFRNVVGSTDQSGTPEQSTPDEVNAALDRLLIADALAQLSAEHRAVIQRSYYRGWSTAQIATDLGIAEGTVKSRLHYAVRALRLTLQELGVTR

ECF17_1458 = molecular target: T7, ECF17_1458
T7 chain: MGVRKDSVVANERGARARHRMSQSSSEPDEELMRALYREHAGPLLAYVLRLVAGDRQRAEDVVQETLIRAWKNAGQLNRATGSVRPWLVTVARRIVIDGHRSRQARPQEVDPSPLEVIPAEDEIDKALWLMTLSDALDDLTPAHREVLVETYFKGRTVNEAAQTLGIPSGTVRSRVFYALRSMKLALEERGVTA

ECF20_992 = molecular target: T8, ECF20_992
T8 chain: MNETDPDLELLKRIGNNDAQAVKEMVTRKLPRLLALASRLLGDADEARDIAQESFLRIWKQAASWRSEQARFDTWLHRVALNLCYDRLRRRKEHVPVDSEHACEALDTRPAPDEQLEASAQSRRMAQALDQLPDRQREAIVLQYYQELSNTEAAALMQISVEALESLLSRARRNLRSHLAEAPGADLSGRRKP

ECF02_2817 = molecular target: T9, ECF02_2817
T9 chain: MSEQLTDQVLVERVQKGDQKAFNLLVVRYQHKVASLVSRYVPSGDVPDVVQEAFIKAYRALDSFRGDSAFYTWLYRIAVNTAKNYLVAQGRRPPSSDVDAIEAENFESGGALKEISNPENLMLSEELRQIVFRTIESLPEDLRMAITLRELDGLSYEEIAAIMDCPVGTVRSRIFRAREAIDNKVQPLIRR

ECF25_1643 = molecular target: T10, ECF25_1643
T10 chain: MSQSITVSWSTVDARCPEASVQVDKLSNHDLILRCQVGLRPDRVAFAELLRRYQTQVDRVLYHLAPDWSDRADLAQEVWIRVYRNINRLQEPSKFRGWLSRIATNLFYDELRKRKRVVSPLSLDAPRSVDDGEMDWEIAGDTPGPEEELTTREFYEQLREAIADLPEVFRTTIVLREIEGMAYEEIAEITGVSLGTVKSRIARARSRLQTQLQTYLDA

ECF01_3473 = molecular target: T11, ECF01_3473
T11 chain: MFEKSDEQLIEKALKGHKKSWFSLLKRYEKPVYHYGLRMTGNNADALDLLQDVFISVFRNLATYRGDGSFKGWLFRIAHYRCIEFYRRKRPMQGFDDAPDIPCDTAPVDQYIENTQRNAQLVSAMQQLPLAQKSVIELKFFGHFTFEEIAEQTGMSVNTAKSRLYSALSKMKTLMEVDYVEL

ECF16_3622 = molecular target: T12, ECF16_3622
T12 chain: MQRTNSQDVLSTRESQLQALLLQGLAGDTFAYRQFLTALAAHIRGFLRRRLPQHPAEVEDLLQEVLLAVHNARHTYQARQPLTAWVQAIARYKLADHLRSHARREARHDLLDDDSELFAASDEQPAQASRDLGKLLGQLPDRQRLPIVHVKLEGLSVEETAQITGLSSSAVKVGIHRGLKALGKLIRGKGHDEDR

ECF30_35 = molecular target: T13, ECF30_35
T13 chain: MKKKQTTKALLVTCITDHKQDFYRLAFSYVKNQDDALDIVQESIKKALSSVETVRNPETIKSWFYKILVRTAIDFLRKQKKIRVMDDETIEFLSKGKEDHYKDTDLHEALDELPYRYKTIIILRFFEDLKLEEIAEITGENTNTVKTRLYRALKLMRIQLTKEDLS

ECF28_1040 = molecular target: T14, ECF28_1040
T14 chain: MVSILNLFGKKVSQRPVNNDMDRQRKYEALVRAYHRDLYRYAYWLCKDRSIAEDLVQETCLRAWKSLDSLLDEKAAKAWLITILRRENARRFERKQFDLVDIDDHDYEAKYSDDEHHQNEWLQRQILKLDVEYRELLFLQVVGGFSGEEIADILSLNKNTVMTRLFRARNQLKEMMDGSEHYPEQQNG

Row | Binder | fold repression (ECF15_524) | fold repression (ECF22_4450) | fold repression (ECF25_1645) | fold repression (ECF26_4464) | fold repression (ECF31_34) | fold repression (ECF28_1088) | fold repression (ECF17_1691) | fold repression (ECF17_1458) | fold repression (ECF20_992) | fold repression (ECF02_2817) | fold repression (ECF25_1643) | fold repression (ECF01_3473) | fold repression (ECF16_3622) | fold repression (ECF30_35) | fold repression (ECF28_1040)
1 | B1 | 0.668 | 2.62 | 0.538 | 1.46 | 0.696 | 1.04 | 0.852 | 1.11 | 0.636 | 0.448 | 0.594 and 0.667 | 0.602 | 57 | 0.463 | 1.39
2 | B2 | 1.53 | 12.7 | 1.42 | 2.51 | 1.48 | 1.18 | 1.52 | 1.23 | 1.54 | 1.98 | 1.63 and 1.34 | 1.32 | 1.79 | 1.54 | 1.4
3 | B3 | 1.58 | 2.29 | 1.3 | 2.04 | 1.96 | 2.27 | 2.05 | 1.5 | 169 | 1.74 | 1.63 and 1.33 | 2.3 | 1.71 | 1.61 | 2.12
4 | B4 | 2.55 | 4.13 | 1.99 | 3.42 | 3.89 | 2.38 | 2.73 | 2.74 | 4.44 | 5.22 | 3.46 and 2.7 | 5.57 | 4.3 | 2.79 | 2.03
5 | B5 | 3.36 | 4.51 | 1.53 | 8.91 | 2.85 | 2.18 | 2.43 | 4.75 | 2.48 | 1.37 | 1.55 and 1.67 | 2.63 | 254 | 0.992 | 3.02
6 | B6 | 2.65 | 35.7 | 2.27 | 3.82 | 2.31 | 2.19 | 1.74 | 2.2 | 2.35 | 2.38 | 2.46 and 1.99 | 3.03 | 2.91 | 2.04 | 1.78
7 | B7 | 31.4 | 11.1 | 3.69 | 28.2 | 6.57 | 3.64 | 5.16 | 9.33 | 5.56 | 2.65 | 2.89 and 3.07 | 9.89 | 7.87 | 5.98 | 4.67
